Results taken from the supplement of paper PMC12764529.
± gives the half width of the 95% confidence interval.

Key:
[1] = folding stability dG unfold from trypsin proteolysis; higher = more stable
In short: (§1)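 How resistant each design was to proteolysis was captured as K50, inferred by Bayesian fitting of sequencing counts. Unfolding free energy was then derived relative to a sequence-predicted unfolded-state K50 and a shared folded-state K50, per protease or combined. Digestion used trypsin and chymotrypsin at 11 threefold-diluted concentrations plus a no-protease condition, on mini-proteins under 80 residues without cysteine in a PA-tagged cDNA display construct. Designs were kept only when AlphaFold2 dimer inter-PAE was above 15.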

[2] = folding stability dG unfold from chymotrypsin proteolysis; higher = more stable
In short: as §1

[3] = folding stability dG unfold (combined trypsin and chymotrypsin); higher = more stable
In short: as §1

Sequence	folding stability dG unfold [1] [kcal/mol]	folding stability dG unfold [2] [kcal/mol]	folding stability dG unfold [3] [kcal/mol]
SAGSSAVEVDIDEELKEKLKKLIDPDKPIEITRLKTTTNETIILITEKGSGKKYIFTRNKEGKIEIKKSAGG [r19_70_JUSTAS]	2.07 ± 0.061	2.5 ± 0.065	2.38 ± 0.069
SAGSSLNILLELETPEEAEKEAARIKEEIPKKGISVTVTIVSKEELEKLLKENVIELPNGSLKLVLFPSAGG [r19_187_JUSTAS]	0.201 ± 0.11	0.138 ± 0.19	0.218 ± 0.25
SAGSSMLDSLTVDTEVTLDPAKGTVLVKTTTTLPDGTVTRTVTTVTVEPLNPPPPPPPRFDPRTGEALESAG [r5_816_JUSTAS]	0.79 ± 0.082	0.207 ± 0.15	0.549 ± 0.14
SAGSSMSLPLPEEIEIEIPNPGLSLEEIKKIVADKLGLKIVSVEEEEGRLVFKAENGIPIRVKIEEPGKSAG [r5_350_JUSTAS]	2.35 ± 0.13	2.376 ± 0.013	2.34 ± 0.072
SAGSSMSVTIKVTIRSPTRTEEIEITVSPSESLEEAIKKVAEKLPPDYSITITFEGGETVTIPIPKELLSAG [r5_77_JUSTAS]	1.93 ± 0.1	1.15 ± 0.024	1.58 ± 0.089
SAGSSSMVLLKVTITFTDPNGTTTTLTYTFDDPSNPEKARAAVEALAAEIKAATGASWTITMTTVPVPGSAG [r14_146_JUSTAS]	4.59 ± 0.16	5.32 ± 0.066	5.17 ± 0.12
SAGSSTPGSEVVRVTSEVSEGESNRTVSYTTYVFEPGGPALRPLSTSTTTVPAAPGVPEGGTKTISLPGSAG [r5_861_JUSTAS]	-0.419 ± 0.064	-0.755 ± 0.2	-0.534 ± 0.11
SAGSSTTLTFPVDTKIPDEKGNPLSSSTVTVTVNPSPGKVTATLTDPATGTVTTVEFGSLEKVEAFLSSSAG [r14_508_JUSTAS]	1.29 ± 0.042	-0.218 ± 0.18	0.809 ± 0.067
SAGSSVTAPFSLPSDLVVDSVTYDPDAKTVTVTVTDPRGGRKAVGTFPVWDPNGNPVLSTADSYTFDNPSAG [r5_434_TrMRF]	-0.417 ± 0.03	-0.0129 ± 0.058	-0.128 ± 0.053
SAGSTTRVVELPGNKRVEVEVSTVGDSLTFTITLRDEEGNPVKTLPVAVPDPSLPVEEAIAAAVAAFLASAG [r5_630_JUSTAS]	3.15 ± 0.049	3.91 ± 0.029	3.68 ± 0.042
SAGSYSVTADVTVHPDGTVDVTLTITTNGEDGTTETSTVLPLTLDLPPGTAVTVTVDPNNGTVTVTVEASAG [r5_179_JUSTAS]	3.01 ± 0.14	4.14 ± 0.058	3.89 ± 0.079
SAGTIAKEIAEKLGLPGLKVKDVKFEPDPDGPIKEIEITVEFPNGRYWKIDIRYDPGNIVIDIEPVPPSAGG [r19_392_TrROS]	1.98 ± 0.056	2.29 ± 0.029	2.17 ± 0.1
SAGTIKELLEKLPGFSVEVDPDDGTVWVMFRMPDHYVMIEIPIDKEDGNIKGIRIHRHDPNGEPKPIPLSAG [r5_367_TrROS]	1.44 ± 0.038	1.19 ± 0.22	1.44 ± 0.12
SAGTIREALDNPKNKRVVIMIMIPPEDFPPGDPERYRERAREMANGIMGWFRERGLDVKIEIEIMYMPWSAG [r5_408_TrROS]	2.38 ± 0.044	2.77 ± 0.03	2.65 ± 0.079
SAGTITADDITEIEMQWDPGNGYVQIEIEFPNGYTVNAWMPNDKIEIEVWYPNGKKVEIEFEIKPPGASAGG [r19_121_TrROS]	1.72 ± 0.22	2.74 ± 0.18	2.39 ± 0.38
SAGTLTLELEVEVDGVLVRVRVEVRPGEEVEVRVEVEVRELPPEPEVEEEEKVELSEEDLERLRRLAEESAG [r5_958_TrROS_Hall]	2.46 ± 0.071	3.4 ± 0.086	3.05 ± 0.1
SAGTVSSSFDPATGTLTITRTTSPDETVDLTLNVEVPETPATVAKVDSGGPVEGDEPVTITVELTDLKPSAG [r5_737_JUSTAS]	0.222 ± 0.075	-0.522 ± 0.42	-0.152 ± 0.24
SAGVISPTDPTTTTTTEVRESEDGTTTTVSTVTYPGTGSTMTVTTTTTHDPSTGTSTVTSTTTTDPSASAGG [r19_342_JUSTAS]	1.57 ± 0.086	0.394 ± 0.029	1.08 ± 0.059
SAGVLTIEVQMPADDAEEFAEEVADTIARRLGFPPGFKIKVKVDRFDPDNGYVRVEATIEFPLPPNQPPSAG [r5_537_TrROS]	2.61 ± 0.12	2.19 ± 0.059	2.43 ± 0.099
SAGVTLKLPFVLPGGLGVDEIEVRSLPGGRVEARLRLKGDPRYYVVARFYVLPGGRLVITDVRVRREDESAG [r14_705_TrMRF]	3.75 ± 0.095	3.22 ± 0.031	3.54 ± 0.082
SAGVVEELLKEFPDVEKVTSSSYPGPKVSQYVIYFPTPSGKKVTIKITVTQPRLPSNSTTSELSIELNDSAG [r5_398_JUSTAS]	2.11 ± 0.12	2.25 ± 0.12	2.08 ± 0.38

Sequence	folding stability dG unfold [1] [kcal/mol]	folding stability dG unfold [2] [kcal/mol]	folding stability dG unfold [3] [kcal/mol]
SAGVVEITFEVPETGEPFTLVIDEDGNVTGRWPSTGDEQEWKLGDKVITFPPNMSPELAAELEKEALSESAG [r14_561_TrMRF]	0.66 ± 0.053	0.587 ± 0.25	0.644 ± 0.18
SAGVVVERTVTRTVPKDSATKEKIIEEIKASMPGMKVKEVEVLSETPLPDGSIVVTVKLTIERPPDVLESAG [r5_682_JUSTAS]	3.23 ± 0.11	2.88 ± 0.092	2.98 ± 0.11
SAGVVVRPGEPVPFYVVRVETELRTRPRPDGSEVTTVETRVEVRPYTVTVGPVPVVEVPPDATDPADAASAG [r5_770_TrMRF]	2.09 ± 0.2	3.96 ± 0.17	3.21 ± 0.16
SAGWKPITAEEIKKLVKEFAEKAPPGDKRPVTVEIRLPLPNGRHWVFTIKVERTDNNVKVKIEVQPYNSAGG [r19_220_TrROS]	2.49 ± 0.076	3.64 ± 0.039	3.2 ± 0.11
SAGWRQILDMARNMLENGHMFRIEWTGPGGKPQEFRIPLDDIETLLDNWPDPDDIRSVDIEVYPPGEPISAG [r5_957_TrROS]	1.72 ± 0.021	2.45 ± 0.056	2.22 ± 0.062
SAGWYIKIKIEYPGDGQKKLEVPIPIPSPEEAKEFADEIADMLAEQNGGNIKIEVEVFRLPPVPPEDQGSAG [r5_87_TrROS]	0.544 ± 0.11	2.2 ± 0.15	1.82 ± 0.21
SAGWYYIIIIKHDNKPIVFVIPPEGMPPEGIRDQISEMLGMPPDNVEIDDIVPFDDNQDAEEAVKEALDSAG [r5_900_TrROS]	1.53 ± 0.067	2.33 ± 0.14	2.09 ± 0.22
SAGYKATIIPPDGSEVTIDVKAEDLGPLVEELEKAGLKVESLEVSPDGTAVIPVTSPDGKPYLIVIDLKSAG [r5_645_TrMRF]	0.418 ± 0.032	0.305 ± 0.11	0.413 ± 0.094
SAIEITVMSDSPEEAKEKAKEFANWLQNRMRRDGLPDMPIPIKIEVIPVPPPKPKPKRDPDDGEWKPDPSAG [r14_475_TrROS]	-0.415 ± 0.57	0.731 ± 0.34	0.487 ± 0.23
SAIKIKNVEFNDNGWMEIEIPYPENGREVTIRMDPNGNIQVEEYPPNDGKPKRKTIPGMSIEEILEELLSAG [r14_760_TrROS]	1.08 ± 0.24	0.25 ± 0.13	0.55 ± 0.33
SAIKLPDGFEIKEVEFTPDGNVTIKIEVKKYSFMIYNPDNGQIQHIPPGKEQEITMPPNEPMRIWVIKPSAG [r14_385_TrROS]	1.45 ± 0.13	1.58 ± 0.26	1.48 ± 0.36
SAIRIEEITIDPEYGVITITFDYPMPPGAEKIKFKIFIDGFKIKEIEYEVDPENGWVRMTLTIRIPKDASAG [r14_244_TrROS]	4.09 ± 0.28	6.5 ± 0.44	> 6
SAKEELYIIEIKVYVDGKEVKTITKVITVPEEKLEEKLKELLKKLAEELGLEIKKVEVKIKKLSLEELKSAG [r14_104_TrROS_Hall]	2.79 ± 0.22	3.09 ± 0.14	2.83 ± 0.34
SAKFRPVEIPFEIKLEEKDPEDGKKEEREFDIKVKIMVFPDNGMVFISIEFIELGRPITIMLPPGAPIISAG [r14_587_TrROS]	2.61 ± 0.17	3.37 ± 0.092	3.08 ± 0.28
SAKFRVSISYDPPDGYLTIMFRYPNPNQPITPEEIEEIAREILEERGHKVKIDEIHHEGNYFMIKIKLPSAG [r14_556_TrROS]	2.51 ± 0.11	2.54 ± 0.11	2.75 ± 0.2
SAKFRVTEIHPNGNNFEIRIERYDPNGEKKKLPIPVNADNMQIDEVDGDKITIYFPNNGREITLPLEDLSAG [r14_947_TrROS]	-0.594 ± 0.34	-0.114 ± 0.42	-0.152 ± 0.36
SAKIEIIKKDGEYYLRITLENGKKKTIKLKGIKKIEIKNGKIYIYNKKTGKKIILKNAKIKKIEIEKVPSAG [r14_83_TrROS_Hall]	3.1 ± 0.18	4.6 ± 0.18	3.87 ± 0.41
SAKIEVYELPDGSKEIVFEFGDKVIRVTFFPDYPLAVVEVFDPPKDEVVKTIPVRADDLEDTIKKILEESAG [r14_583_TrMRF]	1.8 ± 0.096	3.07 ± 0.049	2.67 ± 0.049
SAKIRIPLEKLIDLAESIPGVEVLYDPETGLLLAFIPEIGMLILIRLEEDPEDPDNVEVDIEIIPLSPFSAG [r14_604_TrMRF]	2.75 ± 0.16	2.08 ± 0.22	2.4 ± 0.19
SAKITFIAPGGKPIVIDIDPNYEVIEVIEFPELGVVLILLRNPETGELYAILITPPDYRPTYIELIPLDSAG [r14_311_TrMRF]	3.43 ± 0.096	4.29 ± 0.15	4.17 ± 0.2
SAKKIILIKAESEEELKKAIEEAKKLAEEGKKVEIIIETPKGLILIEIDVKTKKIKIKNLETGEEIELESAG [r14_423_TrROS_Hall]	1.49 ± 0.1	0.375 ± 0.1	1.19 ± 0.23
